# Results: patent US20240261333A1, “NOVEL TARGETS FOR ENHANCING ANTI-TUMOR IMMUNITY” (THE BROAD INSTITUTE, INC., priority 2021, published 2024)
# Biological target: T1, B3GNT2 (Homo sapiens, UniProt Q9NY97)
# T1 construct: The respective ORFs of candidate genes [CD274 (NM_014143), MCL1 (NM_021960), JUNB (NM_002229), and B3GNT2 (NM_006577)] were synthesized; expressed in transfected cells; host or cells: A375 melanoma cells (lentiviral ORF overexpression)
# T1 sequence (Q9NY97 1-397): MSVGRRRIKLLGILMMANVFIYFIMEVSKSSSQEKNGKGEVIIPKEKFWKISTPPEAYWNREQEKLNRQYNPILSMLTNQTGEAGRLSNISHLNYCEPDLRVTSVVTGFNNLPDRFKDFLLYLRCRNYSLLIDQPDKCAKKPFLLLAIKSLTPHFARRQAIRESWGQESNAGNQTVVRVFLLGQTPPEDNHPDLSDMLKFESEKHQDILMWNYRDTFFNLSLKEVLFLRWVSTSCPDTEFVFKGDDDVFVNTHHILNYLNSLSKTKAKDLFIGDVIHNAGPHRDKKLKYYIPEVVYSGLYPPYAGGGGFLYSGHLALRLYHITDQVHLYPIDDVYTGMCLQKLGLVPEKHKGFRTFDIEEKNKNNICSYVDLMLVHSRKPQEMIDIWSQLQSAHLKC
# Experiment: Co-IP of FLAG-tagged B3GNT2 followed by mass spectrometry
# Format: cell-based
# Design: C-term IgG / C-term flag: unit not given here
# Details: mass spectrometry count, unit not given; for C-term flag / N-term FLAG: Co-IP with FLAG antibody; for C-term flag / C-term IgG: C-terminally FLAG-tagged B3GNT2; for N-term FLAG / N-term IgG: N-terminally FLAG-tagged B3GNT2; for C-term IgG / N-term IgG: Co-IP with IgG control antibody
# Procedure, shortened: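 FLAG-tagged B3GNT2 immunoprecipitated from cell lysate (HEPES, 1% Triton X-100, 150 mM NaCl) with anti-FLAG versus […], overnight at 4° C, then captured on Protein A/G magnetic beads for 4 h. Two biological replicates per condition. Peptides fractionated and analyzed by nano-LC on an Orbitrap Elite in data-dependent mode.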
molecule,measurement,value
ATAD3A (protein) SWLFGINKGPKGEGAGPPPPLPPAQPGAEGGGDRGLGDRPAPKDKWSNFDPTGLERAAKAARELEHSRYAKDALNLAQMQEQTLQLEQQSKLKEYEAAVEQLKSEQIRAQAEERRKTLSEETRQHQARAQYQDKLARQRYEDQLKQQQLLNEENLRKQEESVQKQEAMRRATVEREMELRHKNEMLRVEAEARARAKAERENADIIREQIRLKAAEHRQTVLESIRTAGTLFGEGFRAFVTDWDKVTATVAGLTLLAVGVYSAKNATLVAGRFIEARLGKPSLVRETSRITVLEALRHPIQVSRRLLSRPQDALEGVVLSPSLEARVRDIAIATRNTKKNRSLYRNILMYGPPGTGKTLFAKKLALHSGMDYAIMTGGDVAPMGREGVTAMHKLFDWANTSRRGLLLFVDEADAFLRKRATEKISEDLRATLNAFLYRTGQHSNKFMLVLASNQPEQFDWAINDRINEMVHFDLPGQEERERLVRMYFDKYVLKPATEGKQRLKLAQFDYGRKCSEVARLTEGMSGREIAQLAVSWQATAYASEDGVLTEAMMDTRVQDAVQQHQQKMCWLKAEGPGRGDEPSPS,C-term flag,9
same,N-term FLAG,0
same,C-term IgG,0
same,N-term IgG,0
RRBP1 (protein) MDIYDTQTLGVVVFGGFMVVSAIGIFLVSTFSMKETSYEEALANQRKEMAKTHHQKVEKKKKEKTVEKKGKTKKKEEKPNGKIPDHDPAPNVTVLLREPVRAPAVAVAPTPVQPPIIVAPVATVPAMPQEKLASSPKDKKKKEKKVAKVEPAVSSVVNSIQVLTSKAAILETAPKEVPMVVVPPVGAKGNTPATGTTQGKKAEGTQNQSKKAEGAPNQGRKAEGTPNQGKKTEGTPNQGKKAEGTPNQGKKAEGTPNQGKKAEGAQNQGKKVDTTPNQGKKVEGAPTQGRKAEGAQNQAKKVEGAQNQGKKAEGAQNQGKKGEGAQNQGKKAEGAQNQGKKAEGAQNQGKKAEGAQNQGKKAEGAQNQGKKAEGAQNQGKKAEGAQNQGKKVEGAQNQGKKAEGAQNQGKKAEGAQNQGKKAEGAQNQGKKAEGAQNQGKKAEGAQNQGKKAEGAQNQGKKAEGAQNQGKKVEGAQNQGKKAEGAQNQGKKAEGAQNQGKKAEGAQNQGQKGEGAQNQGKKTEGAQGKKAERSPNQGKKGEGAPIQGKKADSVANQGTKVEGITNQGKKAEGSPSEGKKAEGSPNQGKKADAAANQGKKTESASVQGRNTDVAQSPEAPKQEAPAKKKSGSKKKGEPGPPDADGPLYLPYKTLVSTVGSMVFNEGEAQRLIEILSEKAGIIQDTWHKATQKGDPVAILKRQLEEKEKLLATEQEDAAVAKSKLRELNKEMAAEKAKAAAGEAKVKKQLVAREQEITAVQARMQASYREHVKEVQQLQGKIRTLQEQLENGPNTQLARLQQENSILRDALNQATSQVESKQNAELAKLRQELSKVSKELVEKSEAVRQDEQQRKALEAKAAAFEKQVLQLQASHRESEEALQKRLDEVSRELCHTQSSHASLRADAEKAQEQQQQMAELHSKLQSSEAEVRSKCEELSGLHGQLQEARAENSQLTERIRSIEALLEAGQARDAQDVQASQAEADQQQTRLKELESQVSGLEKEAIELREAVEQQKVKNNDLREKNWKAMEALATAEQACKEKLLSLTQAKEESEKQLCLIEAQTMEALLALLPELSVLAQQNYTEWLQDLKEKGPTLLKHPPAPAEPSSDLASKLREAEETQSTLQAECDQYRSILAETEGMLRDLQKSVEEEEQVWRAKVGAAEEELQKSRVTVKHLEEIVEKLKGELESSDQVREHTSHLEAELEKHMAAASAECQNYAKEVAGLRQLLLESQSQLDAAKSEAQKQSDELALVRQQLSEMKSHVEDGDIAGAPASSPEAPPAEQDPVQLKTQLEWTEAILEDEQTQRQKLTAEFEEAQTSACRLQEELEKLRTAGPLESSETEEASQLKERLEKEKKLTSDLGRAATRLQELLKTTQEQLAREKDTVKKLQEQLEKAEDGSSSKEGTSV,C-term flag,16
same,N-term FLAG,2
same,C-term IgG,2
same,N-term IgG,0
UBTF (protein) MNGEADCPTDLEMAAPKGQDRWSQEDMLTLLECMKNNLPSNDSSKFKTTESHMDWEKVAFKDFSGDMCKLKWVEISNEVRKFRTLTELILDAQEHVKNPYKGKKLKKHPDFPKKPLTPYFRFFMEKRAKYAKLHPEMSNLDLTKILSKKYKELPEKKKMKYIQDFQREKQEFERNLARFREDHPDLIQNAKKSDIPEKPKTPQQLWYTHEKKVYLKVRPDEIMRDYIQKHPELNISEEGITKSTLTKAERQLKDKFDGRPTKPPPNSYSLYCAELMANMKDVPSTERMVLCSQQWKLLSQKEKDAYHKKCDQKKKDYEVELLRFLESLPEEEQQRVLGEEKMLNINKKQATSPASKKPAQEGGKGGSEKPKRPVSAMFIFSEEKRRQLQEERPELSESELTRLLARMWNDLSEKKKAKYKAREAALKAQSERKPGGEREERGKLPESPKRAEEIWQQSVIGDYLARFKNDRVKALKAMEMTWNNMEKKEKLMWIKKAAEDQKRYERELSEMRAPPAATNSSKKMKFQGEPKKPPMNGYQKFSQELLSNGELNHLPLKERMVEIGSRWQRISQSQKEHYKKLAEEQQKQYKVHLDLWVKSLSPQDRAAYKEYISNKRKSMTKLRGPNPKSSRTTLQSKSESEEDDEEDEDDEDEDEEEEDDENGDSSEDGGDSSESSSEDESEDGDENEEDDEDEDDDEDDDEDEDNESEGSSSSSSSSGDSSDSDSN,C-term flag,2
same,N-term FLAG,0
same,C-term IgG,0
same,N-term IgG,0
PDIA4 (protein) VAGAEGPDEDSSNRENAIEDEEEEEEEDDDEEEDDLEVKEENGVLVLNDANFDNFVADKDTVLLEFYAPWCGHCKQFAPEYEKIANILKDKDPPIPVAKIDATSASVLASRFDVSGYPTIKILKKGQAVDYEGSRTQEEIVAKVREVSQPDWTPPPEVTLVLTKENFDEVVNDADIILVEFYAPWCGHCKKLAPEYEKAAKELSKRSPPIPLAKVDATAETDLAKRFDVSGYPTLKIFRKGRPYDYNGPREKYGIVDYMIEQSGPPSKEILTLKQVQEFLKDGDDVIIIGVFKGESDPAYQQYQDAANNLREDYKFHHTFSTEIAKFLKVSQGQLVVMQPEKFQSKYEPRSHMMDVQGSTQDSAIKDFVLKYALPLVGHRKVSNDAKRYTRRPLVVVYYSVDFSFDYRAATQFWRSKVLEVAKDFPEYTFAIADEEDYAGEVKDLGLSESGEDVNAAILDESGKKFAMEPEEFDSDTLREFVTAFKKGKLKPVIKSQPVPKNNKGPVKVVVGKTFDSIVMDPKKDVLIEFYAPWCGHCKQLEPVYNSLAKKYKGQKGLVIAKMDATANDVPSDRYKVEGFPTIYFAPSGDKKNPVKFEGGDRDLEHLSKFIEEHATKLSRTKEEL,C-term flag,9
same,N-term FLAG,0
same,C-term IgG,0
same,N-term IgG,0
